Test results published in paper PMC4615246 (Nucleus, 2015).

T1: LacI-CFP-Nup133 (human, UniProt Q8WUM0 1-1156)
T1 sequence: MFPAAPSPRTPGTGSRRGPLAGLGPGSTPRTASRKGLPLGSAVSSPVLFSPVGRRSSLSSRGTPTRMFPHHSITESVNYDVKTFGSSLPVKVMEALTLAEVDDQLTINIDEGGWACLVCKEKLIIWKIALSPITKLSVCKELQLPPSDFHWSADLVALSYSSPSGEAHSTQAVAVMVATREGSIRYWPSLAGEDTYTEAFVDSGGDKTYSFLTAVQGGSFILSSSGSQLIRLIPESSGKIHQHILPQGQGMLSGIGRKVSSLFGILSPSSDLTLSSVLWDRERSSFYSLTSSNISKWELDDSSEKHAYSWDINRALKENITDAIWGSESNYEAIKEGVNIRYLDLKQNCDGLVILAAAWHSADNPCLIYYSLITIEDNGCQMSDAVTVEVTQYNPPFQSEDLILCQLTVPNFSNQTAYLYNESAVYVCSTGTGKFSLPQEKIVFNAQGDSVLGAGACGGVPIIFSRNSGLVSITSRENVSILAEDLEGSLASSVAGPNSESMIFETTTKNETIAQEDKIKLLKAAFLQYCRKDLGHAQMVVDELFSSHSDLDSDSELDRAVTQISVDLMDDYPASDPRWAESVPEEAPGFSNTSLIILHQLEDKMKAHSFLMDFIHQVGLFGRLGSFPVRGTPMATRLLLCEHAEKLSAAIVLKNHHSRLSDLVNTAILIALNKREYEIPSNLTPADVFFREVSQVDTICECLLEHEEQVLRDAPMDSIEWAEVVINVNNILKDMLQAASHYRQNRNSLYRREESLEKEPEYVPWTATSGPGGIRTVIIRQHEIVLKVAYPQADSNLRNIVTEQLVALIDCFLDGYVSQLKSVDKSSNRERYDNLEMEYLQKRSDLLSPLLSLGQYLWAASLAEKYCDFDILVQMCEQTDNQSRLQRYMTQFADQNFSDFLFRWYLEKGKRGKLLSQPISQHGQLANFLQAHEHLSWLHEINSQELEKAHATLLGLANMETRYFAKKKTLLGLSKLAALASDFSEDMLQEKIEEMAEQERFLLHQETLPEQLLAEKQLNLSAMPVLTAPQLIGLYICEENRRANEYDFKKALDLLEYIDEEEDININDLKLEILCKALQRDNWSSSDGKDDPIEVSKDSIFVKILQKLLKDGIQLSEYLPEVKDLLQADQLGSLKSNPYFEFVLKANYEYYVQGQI

T2: LacI-CFP-Nup153 (human, UniProt P49790 1-1475)
T2 sequence: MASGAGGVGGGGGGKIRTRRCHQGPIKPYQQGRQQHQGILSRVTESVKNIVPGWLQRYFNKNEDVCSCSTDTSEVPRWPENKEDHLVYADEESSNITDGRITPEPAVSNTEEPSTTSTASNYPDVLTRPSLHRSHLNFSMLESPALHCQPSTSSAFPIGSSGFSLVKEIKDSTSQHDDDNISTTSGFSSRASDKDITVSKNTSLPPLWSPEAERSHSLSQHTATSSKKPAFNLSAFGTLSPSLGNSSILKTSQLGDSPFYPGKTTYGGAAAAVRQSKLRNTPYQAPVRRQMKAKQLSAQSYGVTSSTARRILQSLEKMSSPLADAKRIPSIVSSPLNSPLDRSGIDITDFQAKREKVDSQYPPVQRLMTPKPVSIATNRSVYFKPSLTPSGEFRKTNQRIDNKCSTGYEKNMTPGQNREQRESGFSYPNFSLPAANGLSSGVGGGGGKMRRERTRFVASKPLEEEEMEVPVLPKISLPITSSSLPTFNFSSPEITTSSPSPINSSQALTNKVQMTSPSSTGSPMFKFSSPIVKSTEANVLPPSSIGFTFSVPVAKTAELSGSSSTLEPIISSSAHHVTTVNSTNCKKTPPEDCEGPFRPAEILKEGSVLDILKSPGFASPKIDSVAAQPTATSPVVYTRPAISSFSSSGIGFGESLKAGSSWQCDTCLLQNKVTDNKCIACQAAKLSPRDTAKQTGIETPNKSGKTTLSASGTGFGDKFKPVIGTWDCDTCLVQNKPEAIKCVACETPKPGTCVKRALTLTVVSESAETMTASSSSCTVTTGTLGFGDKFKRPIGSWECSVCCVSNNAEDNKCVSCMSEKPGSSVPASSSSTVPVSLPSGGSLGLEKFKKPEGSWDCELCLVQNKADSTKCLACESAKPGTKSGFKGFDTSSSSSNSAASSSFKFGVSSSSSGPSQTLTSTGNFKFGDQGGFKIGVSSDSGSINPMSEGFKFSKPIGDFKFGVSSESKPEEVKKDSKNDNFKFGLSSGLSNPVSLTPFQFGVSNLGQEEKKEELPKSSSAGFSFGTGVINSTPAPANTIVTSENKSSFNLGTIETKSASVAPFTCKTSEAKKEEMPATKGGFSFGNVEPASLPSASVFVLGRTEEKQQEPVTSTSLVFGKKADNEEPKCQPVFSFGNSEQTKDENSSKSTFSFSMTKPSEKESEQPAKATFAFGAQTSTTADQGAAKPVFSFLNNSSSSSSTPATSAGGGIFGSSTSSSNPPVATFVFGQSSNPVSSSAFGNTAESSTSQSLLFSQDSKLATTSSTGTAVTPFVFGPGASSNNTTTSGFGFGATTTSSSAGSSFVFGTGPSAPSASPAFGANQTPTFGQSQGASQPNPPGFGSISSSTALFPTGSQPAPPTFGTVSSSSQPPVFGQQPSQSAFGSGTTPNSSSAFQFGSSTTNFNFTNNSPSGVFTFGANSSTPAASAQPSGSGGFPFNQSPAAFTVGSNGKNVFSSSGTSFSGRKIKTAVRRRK

T3: LacI-CFP-Nup50 (human, UniProt Q9UKX7 1-468)
T3 sequence: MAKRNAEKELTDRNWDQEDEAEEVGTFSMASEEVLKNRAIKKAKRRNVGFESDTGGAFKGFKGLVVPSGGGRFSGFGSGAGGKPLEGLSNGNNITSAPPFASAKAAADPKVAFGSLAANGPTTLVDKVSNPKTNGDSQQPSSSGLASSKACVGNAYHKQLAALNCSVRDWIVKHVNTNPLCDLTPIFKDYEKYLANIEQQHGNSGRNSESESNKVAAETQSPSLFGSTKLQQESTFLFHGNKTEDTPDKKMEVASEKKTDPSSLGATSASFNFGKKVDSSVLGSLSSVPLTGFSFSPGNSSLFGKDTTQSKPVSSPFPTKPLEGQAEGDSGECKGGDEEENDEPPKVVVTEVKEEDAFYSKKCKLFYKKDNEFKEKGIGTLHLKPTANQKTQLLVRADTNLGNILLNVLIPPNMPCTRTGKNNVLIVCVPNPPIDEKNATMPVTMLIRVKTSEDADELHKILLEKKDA

T4: LacI-CFP-Nup107 (human, UniProt P57740 1-925)
T4 sequence: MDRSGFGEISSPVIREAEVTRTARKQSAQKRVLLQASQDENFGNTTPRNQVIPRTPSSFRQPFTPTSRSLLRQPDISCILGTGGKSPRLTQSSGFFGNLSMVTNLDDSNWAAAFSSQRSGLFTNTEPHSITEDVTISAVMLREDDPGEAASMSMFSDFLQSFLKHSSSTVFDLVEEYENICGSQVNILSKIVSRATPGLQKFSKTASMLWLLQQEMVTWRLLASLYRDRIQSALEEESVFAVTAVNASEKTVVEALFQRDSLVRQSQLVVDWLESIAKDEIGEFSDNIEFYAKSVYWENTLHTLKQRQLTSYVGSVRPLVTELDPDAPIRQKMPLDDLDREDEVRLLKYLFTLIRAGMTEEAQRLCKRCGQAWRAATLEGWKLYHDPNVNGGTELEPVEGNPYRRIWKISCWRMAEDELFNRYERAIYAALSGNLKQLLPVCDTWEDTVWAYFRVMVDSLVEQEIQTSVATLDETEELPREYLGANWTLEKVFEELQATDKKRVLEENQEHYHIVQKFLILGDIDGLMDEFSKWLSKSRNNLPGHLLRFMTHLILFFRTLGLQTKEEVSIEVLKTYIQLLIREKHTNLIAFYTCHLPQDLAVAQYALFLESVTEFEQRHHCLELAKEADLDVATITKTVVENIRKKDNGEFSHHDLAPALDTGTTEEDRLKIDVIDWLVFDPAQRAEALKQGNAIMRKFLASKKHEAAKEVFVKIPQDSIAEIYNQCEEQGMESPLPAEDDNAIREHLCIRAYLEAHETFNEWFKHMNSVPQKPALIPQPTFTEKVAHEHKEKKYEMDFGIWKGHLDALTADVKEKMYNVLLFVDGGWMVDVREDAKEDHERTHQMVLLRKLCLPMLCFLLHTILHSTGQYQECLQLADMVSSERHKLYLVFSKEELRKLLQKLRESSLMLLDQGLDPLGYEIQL


Legend:
Test in all cases: LacI/LacO array recruitment in cells
[1] = target: T1, LacI-CFP-Nup133
[2] = target: T2, LacI-CFP-Nup153
[3] = target: T3, LacI-CFP-Nup50
[4] = target: LacI-CFP-Nup214 (human, UniProt P35658 1-2090)
[5] = target: T4, LacI-CFP-Nup107

LacI-CFP-Nup214, sequence (P35658 whole entry): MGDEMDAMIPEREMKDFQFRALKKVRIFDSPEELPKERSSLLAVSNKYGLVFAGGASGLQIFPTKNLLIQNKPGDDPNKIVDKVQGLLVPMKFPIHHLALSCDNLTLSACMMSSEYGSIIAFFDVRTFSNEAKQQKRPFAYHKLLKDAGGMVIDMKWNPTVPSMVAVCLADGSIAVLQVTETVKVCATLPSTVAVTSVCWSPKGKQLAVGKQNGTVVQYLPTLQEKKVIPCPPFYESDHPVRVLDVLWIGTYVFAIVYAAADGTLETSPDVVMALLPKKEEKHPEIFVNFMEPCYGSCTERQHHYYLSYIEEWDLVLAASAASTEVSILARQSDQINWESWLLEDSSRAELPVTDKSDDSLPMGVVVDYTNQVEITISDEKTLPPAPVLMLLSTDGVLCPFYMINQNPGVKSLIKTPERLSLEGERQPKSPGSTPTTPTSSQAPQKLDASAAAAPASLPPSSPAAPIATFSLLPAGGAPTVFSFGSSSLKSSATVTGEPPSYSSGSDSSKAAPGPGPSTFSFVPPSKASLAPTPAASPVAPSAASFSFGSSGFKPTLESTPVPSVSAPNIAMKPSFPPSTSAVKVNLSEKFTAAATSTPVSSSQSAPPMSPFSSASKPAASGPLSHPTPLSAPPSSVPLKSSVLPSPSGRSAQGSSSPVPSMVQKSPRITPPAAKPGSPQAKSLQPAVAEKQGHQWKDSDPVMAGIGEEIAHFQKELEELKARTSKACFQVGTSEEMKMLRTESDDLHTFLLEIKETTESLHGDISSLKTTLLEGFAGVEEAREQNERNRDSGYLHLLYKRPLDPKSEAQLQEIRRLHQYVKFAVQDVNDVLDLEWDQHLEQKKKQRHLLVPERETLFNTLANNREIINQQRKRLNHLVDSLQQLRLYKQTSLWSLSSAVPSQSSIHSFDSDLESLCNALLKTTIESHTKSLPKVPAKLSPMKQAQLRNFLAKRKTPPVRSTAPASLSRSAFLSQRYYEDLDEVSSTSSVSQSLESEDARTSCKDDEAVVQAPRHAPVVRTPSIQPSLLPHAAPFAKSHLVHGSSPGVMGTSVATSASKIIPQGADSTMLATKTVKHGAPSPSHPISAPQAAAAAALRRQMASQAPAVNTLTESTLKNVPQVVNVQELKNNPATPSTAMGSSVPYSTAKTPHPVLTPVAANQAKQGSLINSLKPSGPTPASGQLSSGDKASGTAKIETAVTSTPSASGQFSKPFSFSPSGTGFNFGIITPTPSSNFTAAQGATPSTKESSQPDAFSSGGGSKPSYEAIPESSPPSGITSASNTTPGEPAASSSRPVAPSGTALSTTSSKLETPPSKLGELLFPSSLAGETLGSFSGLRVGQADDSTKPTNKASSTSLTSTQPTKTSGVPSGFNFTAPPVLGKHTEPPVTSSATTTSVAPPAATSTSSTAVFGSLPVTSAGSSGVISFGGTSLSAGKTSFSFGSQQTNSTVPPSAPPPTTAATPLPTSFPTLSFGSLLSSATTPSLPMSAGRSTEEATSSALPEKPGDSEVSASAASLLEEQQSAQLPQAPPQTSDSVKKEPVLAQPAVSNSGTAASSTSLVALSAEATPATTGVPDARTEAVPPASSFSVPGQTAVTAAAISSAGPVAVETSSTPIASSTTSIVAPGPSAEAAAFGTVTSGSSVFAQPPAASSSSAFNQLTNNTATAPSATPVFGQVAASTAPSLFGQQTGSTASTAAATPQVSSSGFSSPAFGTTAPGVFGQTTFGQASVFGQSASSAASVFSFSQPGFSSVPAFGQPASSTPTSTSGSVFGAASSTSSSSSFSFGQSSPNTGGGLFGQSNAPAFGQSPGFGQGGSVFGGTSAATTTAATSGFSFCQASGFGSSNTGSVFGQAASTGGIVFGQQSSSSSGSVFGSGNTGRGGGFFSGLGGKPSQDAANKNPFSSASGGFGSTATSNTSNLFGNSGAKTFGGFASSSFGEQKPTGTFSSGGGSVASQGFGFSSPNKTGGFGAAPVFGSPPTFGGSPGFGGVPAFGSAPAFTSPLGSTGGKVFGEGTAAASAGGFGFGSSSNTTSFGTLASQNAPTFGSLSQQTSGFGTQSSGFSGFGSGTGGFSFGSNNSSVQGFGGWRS

Binder	percent of transfected cells showing colocalization [1] [%]	percent of transfected cells showing colocalization [2] [%]	percent of transfected cells showing colocalization [3] [%]	percent of transfected cells showing colocalization [4] [%]	percent of transfected cells showing colocalization [5] [%]
Nup98 (endogenous) (natural protein) MFNKSFGTPFGGGTGGFGTTSTFGQNTGFGTTSGGAFGTSAFGSSNNTGGLFGNSQTKPGGLFGTSSFSQPATSTSTGFGFGTSTGTANTLFGTASTGTSLFSSQNNAFAQNKPTGFGNFGTSTSSGGLFGTTNTTSNPFGSTSGSLFGPSSFTAAPTGTTIKFNPPTGTDTMVKAGVSTNISTKHQCITAMKEYESKSLEELRLEDYQANRKGPQNQVGAGTTTGLFGSSPATSSATGLFSSSTTNSGFAYGQNKTAFGTSTTGFGTNPGGLFGQQNQQTTSLFSKPFGQATTTQNTGFSFGNTSTIGQPSTNTMGLFGVTQASQPGGLFGTATNTSTGTAFGTGTGLFGQTNTGFGAVGSTLFGNNKLTTFGSSTTSAPSFGTTSGGLFGNKPTLTLGTNTNTSNFGFGTNTSGNSIFGSKPAPGTLGTGLGAGFGTALGAGQASLFGNNQPKIGGPLGTGAFGAPGFNTTTATLGFGAPQAPVALTDPNASAAQQAVLQQHINSLTYSPFGDSPLFRNPMSDPKKKEERLKPTNPAAQKALTTPTHYKLTPRPATRVRPKALQTTGTAKSHLFDGLDDDEPSLANGAFMPKKSIKKLVLKNLNNSNLFSPVNRDSENLASPSEYPENGERFSFLSKPVDENHQQDGDEDSLVSHFYTNPIAKPIPQTPESAGNKHSNSNSVDDTIVALNMRAALRNGLEGSSEETSFHDESLQDDREEIENNSYHMHPAGIILTKVGYYTIPSMDDLAKITNEKGECIVSDFTIGRKGYGSIYFEGDVNLTNLNLDDIVHIRRKEVVVYLDDNQKPPVGEGLNRKAEVTLDGVWPTDKTSRCLIKSPDRLADINYEGRLEAVSRKQGAQFKEYRPETGSWVFKVSHF	70	11	11	90	
Nup133 (endogenous) (natural protein) MFPAAPSPRTPGTGSRRGPLAGLGPGSTPRTASRKGLPLGSAVSSPVLFSPVGRRSSLSSRGTPTRMFPHHSITESVNYDVKTFGSSLPVKVMEALTLAEVDDQLTINIDEGGWACLVCKEKLIIWKIALSPITKLSVCKELQLPPSDFHWSADLVALSYSSPSGEAHSTQAVAVMVATREGSIRYWPSLAGEDTYTEAFVDSGGDKTYSFLTAVQGGSFILSSSGSQLIRLIPESSGKIHQHILPQGQGMLSGIGRKVSSLFGILSPSSDLTLSSVLWDRERSSFYSLTSSNISKWELDDSSEKHAYSWDINRALKENITDAIWGSESNYEAIKEGVNIRYLDLKQNCDGLVILAAAWHSADNPCLIYYSLITIEDNGCQMSDAVTVEVTQYNPPFQSEDLILCQLTVPNFSNQTAYLYNESAVYVCSTGTGKFSLPQEKIVFNAQGDSVLGAGACGGVPIIFSRNSGLVSITSRENVSILAEDLEGSLASSVAGPNSESMIFETTTKNETIAQEDKIKLLKAAFLQYCRKDLGHAQMVVDELFSSHSDLDSDSELDRAVTQISVDLMDDYPASDPRWAESVPEEAPGFSNTSLIILHQLEDKMKAHSFLMDFIHQVGLFGRLGSFPVRGTPMATRLLLCEHAEKLSAAIVLKNHHSRLSDLVNTAILIALNKREYEIPSNLTPADVFFREVSQVDTICECLLEHEEQVLRDAPMDSIEWAEVVINVNNILKDMLQAASHYRQNRNSLYRREESLEKEPEYVPWTATSGPGGIRTVIIRQHEIVLKVAYPQADSNLRNIVTEQLVALIDCFLDGYVSQLKSVDKSSNRERYDNLEMEYLQKRSDLLSPLLSLGQYLWAASLAEKYCDFDILVQMCEQTDNQSRLQRYMTQFADQNFSDFLFRWYLEKGKRGKLLSQPISQHGQLANFLQAHEHLSWLHEINSQELEKAHATLLGLANMETRYFAKKKTLLGLSKLAALASDFSEDMLQEKIEEMAEQERFLLHQETLPEQLLAEKQLNLSAMPVLTAPQLIGLYICEENRRANEYDFKKALDLLEYIDEEEDININDLKLEILCKALQRDNWSSSDGKDDPIEVSKDSIFVKILQKLLKDGIQLSEYLPEVKDLLQADQLGSLKSNPYFEFVLKANYEYYVQGQI		35	11	35	94
